Biological target: T1, 6xHis-TLX ligand-binding domain (UniProt Q9Y466 155-385)
T1 construct: Construct limits, species and expression host should stand in the SI Appendix (methods); also called TLX LBD; NR2E1; source: purified
Assay: AlphaScreen or HTRF; ALPHA competition experiments in the presence of saturating 18:1ω9
Conditions: both partners purified

T1 sequence (Q9Y466 155-385): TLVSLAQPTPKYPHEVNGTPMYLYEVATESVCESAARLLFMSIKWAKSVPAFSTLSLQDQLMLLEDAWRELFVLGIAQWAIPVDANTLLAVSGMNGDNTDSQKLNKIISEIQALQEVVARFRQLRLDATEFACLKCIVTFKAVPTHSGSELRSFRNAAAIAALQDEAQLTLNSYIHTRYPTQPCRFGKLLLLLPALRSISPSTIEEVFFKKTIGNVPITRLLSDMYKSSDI

B1: receptor-interaction domain from NCOA3 (domain or fragment, UniProt Q9Y6Q9 621-821, looked up)
chain: LLQLLTCSSDDRGHSSLTNSPLDSSCKESSVSVTSPSGVSSSTSGGVSSTSNMHGSLLQEKHRILHKLLQNGNSPAEVAKITAEATGKDTSSITSCGDGNVVKQEQLSPKKKENNALLRYLLDRDDPSDALSKELQPQVEGVDNKMSQCTSSTIPSSSQEKDPKIKTETSEEGSGDLDNLDAILGDLTSSDFYNNSISSNG
notes: The methods name an AlphaScreen GST Detection Kit, so a GST fusion may have been used somewhere; see SI Appendix; also called SRC3
In the case of B1, the “EC50 with 18:1ω9” value is reported as 3.3 µM.

Reference: PMC9060471, “Oleic acid is an endogenous ligand of TLX/NR2E1 that triggers hippocampal neurogenesis” (Proceedings of the National Academy of Sciences of the …, 2022)
